The results in this text go back to patent US20200399343A1.

The target of test [1] is major histocompatibility complex (MHC) Class I.
Test [2] shares this target. The source holds these as a separate data set.

In test [1], US3 displayed an MHC Class I expression (MFI HLA A/B/C) on transduced Jurkat cells (MFI HLA A/B/C) of 5320. Further, the MHC Class I expression (MFI HLA A/B/C) on transduced primary T cells (MFI HLA A/B/C) in test [2] was 13000.
Consider K3, for which the MHC Class I expression (MFI HLA A/B/C) on transduced Jurkat cells (MFI HLA A/B/C) in test [1] was 2170. For the same molecule, the MHC Class I expression (MFI HLA A/B/C) on transduced primary T cells (MFI HLA A/B/C) in test [2] is 10900.
Turning to K5, in test [1], the MHC Class I expression (MFI HLA A/B/C) on transduced Jurkat cells (MFI HLA A/B/C) came out at 661. The same molecule returned an MHC Class I expression (MFI HLA A/B/C) on transduced primary T cells (MFI HLA A/B/C) in test [2] of 4480.

B1: US11 (protein)
chain: MPELSLTLFDEPPPLVETEPLPPLSDVSEYRVEYSEARCVLRSGGRLEALWTLRGNLSVPTPTPRVYYQTLEGYADRVPTPVEDVSESLVAKRYWLRDYRVPQRTKLVLFYFSPCHQCQTYYVECEPRCLVPWVPLWSSLEDIERLLFEDRRLMAYYALTIKSAQYTLMMVAVIQVFWGLYVKGWLHRHFPWMFSDQW
The molecule B1 displayed an MHC Class I expression (MFI HLA A/B/C) on transduced Jurkat cells (MFI HLA A/B/C) in test [1] of 8080. For the same molecule, the MHC Class I expression (MFI HLA A/B/C) on transduced primary T cells (MFI HLA A/B/C) in test [2] was 14600.

B2: US6 (protein)
chain: ERSSRDPKTLLSLSPRQQACVPRTKSHRPVCYNDTGDCTDADDSWKQLGEDFAHQCLQAAKKRPKTHKSRPNDRNLEGRLTCQRVRRLLPCDLDIHPSHRLLTLMNNCVCDGAVWNAFRLIERHGFFAVTLYLCCGITLLVVILALLCSITYESTGRGIRR
B2 displayed an MHC Class I expression (MFI HLA A/B/C) on transduced Jurkat cells (MFI HLA A/B/C) in test [1] of 1720. The MHC Class I expression (MFI HLA A/B/C) on transduced primary T cells (MFI HLA A/B/C) in test [2] is 9500.

B3: US2 (protein)
chain: MNNLWKAWVGLWTSMGPLIRLPDGITKAGEDALRPWKSTAKHPWFQIEDNRCYIDNGKLFARGSIVGNMSRFVFDPKADYGGVGENLYVHADDVEFVPGESLKWNVRNLDVMPIFETLALRLVLQGDVIWLRCVPELRVDYTSSAYMWNMQYGMVRKSYTHVAWTIVFYSINITLLVLFIVYVTVDCNLSMMWMRFFVC
On to B3, for which the MHC Class I expression (MFI HLA A/B/C) on transduced Jurkat cells (MFI HLA A/B/C) in test [1] stood at 6080. The molecule further showed an MHC Class I expression (MFI HLA A/B/C) on transduced primary T cells (MFI HLA A/B/C) in test [2] of 14500.

B4: E19 (protein)
chain: TTQKVDFKEPACNVTFAAEANECTTLIKCTTEHEKLLIRHKNKIGKYAVYAIWQPGDTTEYNVTVFQGKSHKTFMYTFPFYEMCDITMYMSKQYKLWPPQNCVENTGTFCCTAMLITVLALVCTLLYIKYKSRRSFIEEKKMP
B4 gave an MHC Class I expression (MFI HLA A/B/C) on transduced Jurkat cells (MFI HLA A/B/C) in test [1] of 3430. In addition, the MHC Class I expression (MFI HLA A/B/C) on transduced primary T cells (MFI HLA A/B/C) in test [2] is 14800.

B5: ICP47 (protein)
chain: MSWALEMADTFLDTMRVGPRTYADVRDEINKRGREDREAARTAVHDPERPLLRSPGLLPEIAPNASLGVAHRRTGGTVTDSPRNPVTR
In the case of B5, the MHC Class I expression (MFI HLA A/B/C) on transduced Jurkat cells (MFI HLA A/B/C) in test [1] was determined as 2060. Moreover, the MHC Class I expression (MFI HLA A/B/C) on transduced primary T cells (MFI HLA A/B/C) in test [2] is 5940.
